Measured values reported in the FLAb antibody collection (doi:10.7554/elife.23156).

B1: scFv; the commonest letter at each place (parent)
chain 1: EVKLDETGGGLVQPGRPMKLSCVASGFTFSDYWMNWVRQSPEKGLEWVAQIRNKPYNYETYYSDSVKGRFTISRDDSKSSVYLQMNNLRVEDMGIYYCTGSYYGMDYWGQGTSVTVS
chain 2: DVVMTQTPLSLPVSLGDQASISCRSSQSLVHSNGNTYLRWYLQKPGQSPKVLIYKVSNRFSGVPDRFSGSGSGTDFTLKISRVEAEDLGVYFCSQSTHVPWTFGGGTKLEIK

What was measured:
fluorescein = variants of: B1; assay: Kd (Tite-Seq); conditions: with fluorescein; format: scFv 4-4-20, heavy + light
[1] = variants of: B1; assay: yeast surface expression (ratio to wild type); higher = more expressed; conditions: format: scFv 4-4-20, heavy + light

Variant	Kd (fluorescein) [µM]	yeast surface expression [1]
chain 1 W33A N35S W36M	≥ 10	0.823
chain 1 T28Y W36M	≥ 10	0.486
chain 1 D31P Y32W	≥ 10	0.762
chain 1 D106R G109H	≥ 10	0.486
chain 1 T28G F29P	≥ 10	0.769
chain 1 D31A W33I	≥ 10	0.872
chain 1 Y32P V37G	≥ 10	2.54
chain 1 T28F F29H	≥ 10	0.638
chain 1 F29K D31K W33G	≥ 10	0.92
chain 1 G100E M105D	≥ 10	0.296
chain 1 D106W Y107I	≥ 10	0.31
chain 1 G104H W108R	≥ 10	0.272
chain 1 G100Y Y107W	≥ 10	0.468
chain 1 S101D D106K	≥ 10	0.435
chain 1 W33E W36L	≥ 10	0.622
chain 1 G100D G109T	≥ 10	0.21
chain 1 W33V N35T	≥ 10	0.89
chain 1 S30P W33P	≥ 10	0.628
chain 1 G100E D106H	≥ 10	0.289
chain 1 Y32P W36C	≥ 10	0.649

Variant	Kd (fluorescein) [µM]	yeast surface expression [1]
chain 1 F29N W33P	≥ 10	0.333
chain 1 G100I S101E	≥ 10	0.652
chain 1 G100N Y107V	≥ 10	0.691
chain 1 Y107A W108A	≥ 10	0.351
chain 1 Y102N M105C	≥ 10	1.22
chain 1 S101N Y103C	≥ 10	0.438
chain 1 Y103T G104W	≥ 10	0.534
chain 1 G104V Y107K	≥ 10	0.324
chain 1 Y32E W36H	≥ 10	0.342
chain 1 Y102M M105T W108T	≥ 10	0.539
chain 1 S30W D31V	≥ 10	0.463
chain 1 Y32I W33T N35A	≥ 10	0.824
chain 1 Y107M G109Q	≥ 10	0.353
chain 1 S30D W36V V37L	≥ 10	0.433
chain 1 S30Y V37H	≥ 10	0.57
chain 1 G100K	≥ 10	0.395
chain 1 S101L M105D D106L	≥ 10	0.276
chain 1 G104E Y107A	≥ 10	0.736
chain 1 M105T Y107R	≥ 10	0.527
chain 1 T28N F29R	≥ 10	0.996

Variant	Kd (fluorescein) [µM]	yeast surface expression [1]
chain 1 G100F W108A	≥ 10	0.671
chain 1 Y107V W108D	≥ 10	0.425
chain 1 S30H D31S N35P	≥ 10	0.391
chain 1 D106L W108I	≥ 10	0.314
chain 1 S30I W36P V37E	≥ 10	0.93
chain 1 D106K W108G	≥ 10	0.276
chain 1 S101I Y102M	≥ 10	0.621
chain 1 Y102D Y103L G109P	≥ 10	0.465
chain 1 M105A	≥ 10	1.01
chain 1 S101P G104T M105Y	≥ 10	0.208
chain 1 S101I Y107K	≥ 10	0.29
chain 1 W108L G109R	≥ 10	0.296
chain 1 Y32F W33Y	≥ 10	0.757
chain 1 S101R G109Q	≥ 10	0.201
chain 1 S101C G109A	≥ 10	0.363
chain 1 S101C G109N	≥ 10	0.251
chain 1 D31E W33N	≥ 10	0.845
chain 1 Y102W G109V	≥ 10	0.19
chain 1 G100S Y107A	≥ 10	0.942

The next lines start with results.

Kd (fluorescein) [µM]	Variant	yeast surface expression [1]
≥ 10	chain 1 W36T V37D	0.28
≥ 10	chain 1 W36T V37L	0.507
≥ 10	chain 1 T28G M34P N35T	0.318
2.23	chain 1 T28I Y32C	0.946
≥ 10	chain 1 Y103L G109M	0.208
0.0534	chain 1 S30Y M34A	0.483
≥ 10	chain 1 S30V M34S	0.569
≥ 10	chain 1 D31H W33L	0.72
0.00547	chain 1 D31F	0.636
0.0747	chain 1 D31C	0.608
0.00293	chain 1 D31W	0.566
≥ 10	chain 1 F29T W36D	0.484
≥ 10	chain 1 G100R Y103D W108G	0.483
≥ 10	chain 1 Y102Q Y103T	1.05
≥ 10	chain 1 Y102Q Y103E	0.977
≥ 10	chain 1 S101Y Y103G	0.935
≥ 10	chain 1 Y103T D106R	0.311
≥ 10	chain 1 S101R D106T	0.466
≥ 10	chain 1 F29E D31R	0.624

Kd (fluorescein) [µM]	Variant	yeast surface expression [1]
≥ 10	chain 1 S101W Y102Q W108A	0.239
≥ 10	chain 1 S30D N35R	0.195
≥ 10	chain 1 G104T G109L	0.241
≥ 10	chain 1 M105Y D106H W108L	0.362
≥ 10	chain 1 G100W S101P	0.197
≥ 10	chain 1 D31S V37N	0.629
≥ 10	chain 1 D31S V37P	0.675
0.00746	chain 1 F29M D31T	0.848
≥ 10	chain 1 W33N N35I	0.657
≥ 10	chain 1 S101Q Y102D Y107P	0.361
≥ 10	chain 1 Y32P W33I	0.908
≥ 10	chain 1 F29L M34W	0.795
0.00519	chain 1 T28G V37P	0.581
0.0189	chain 1 F29T D31N	1.01
8.13	chain 1 F29V Y32S	0.999
0.0233	chain 1 G100S Y102T	0.74
0.0944	chain 1 D31L Y32A	0.73
0.0259	chain 1 T28R Y32H	1
0.832	chain 1 F29S S30H	0.945

Kd (fluorescein) [µM]	Variant	yeast surface expression [1]
0.02	chain 1 Y102K M105N	0.916
7.33	chain 1 N35P W36V	1.08
0.00135	unchanged	1
0.00708	chain 1 Y103L	1.08
5.96	chain 1 Y102L Y107S	1.78
0.712	chain 1 M105K Y107T	0.559
0.228	chain 1 F29I S30R D31E	0.688
8.13	chain 1 Y32S V37F	0.891
0.00672	chain 1 Y103F W108Q	0.382
0.0221	chain 1 F29W D31H	0.626
0.676	chain 1 Y32H W36F	0.839
0.0129	chain 1 M105Y	0.866
4.48	chain 1 M105C	0.861
0.0233	chain 1 M105N	0.844
0.0154	chain 1 T28P M34S	0.95
0.195	chain 1 M34E N35H	0.4
0.195	chain 1 D31V M34R	0.17
0.0139	chain 1 T28W F29M	0.897
2.28	chain 1 M34N	0.695
